Tests used:
[1] = target: Human folate receptor alpha-1 (FOLR1) on ovarian cancer cells (human, UniProt P15328 25-234); assay: cell-based or functional assay
[2] = target: Human death receptor 5 (DR5/TRAIL-R2) on cancer cells (human, UniProt O14763 56-440); assay: cell-based or functional assay
[3] = target: T1, Recombinant DR5 (rDR5), extracellular domain of DR5/TRAIL-R2 fused to IgG4-Fc; assay: ELISA on coated rDR5-IgG4-Fc (FIG. 12D)
T1 construct: It was biotinylated for BLI; also called rDR5-IgG4; DR5-Fc
Method: (D) IgG4-Fc tagged rDR5 receptor was coated in 96 well plates overnight.
Binding specificity and affinity of various described IgG1 subclasses were determined by ELISA using the recombinant extracellular domain of FOLR1 and/or DR5/TRAIL-R2. For coating 96-well ELISA plates (Olympus), the protein solutions (2 μg/ml) were prepared in coating buffer (100 mM Sodium Bicarbonate pH 9.2) and 100 μl was distributed in each well. The plates were then incubated overnight at 4° C. Next day, the unbound areas were blocked by cell culture media containing 10% FBS, 1% BSA and 0.5% sodium azide for 2 hr at room temperature. […] After washing with PBS solution containing 0.1% Tween20, the plates were incubated for 1 hr with horseradish peroxidase (HRP) conjugated anti-human IgG1 (Thermo Scientific, A10648). Detection was performed using a two-component peroxidase substrate kit (BD biosciences) and the reaction was stopped with the addition of 2 N Sulfuric acid. Absorbance at 450 nm was immediately recorded using a Synergy Spectrophotometer (BioTech), and background absorbance from negative control samples was subtracted. The antibody affinities (Kd) were calculated by non-linear regression analysis using GraphPad Prism software.

Chain of Human folate receptor alpha-1 (FOLR1) on ovarian cancer cells (P15328 25-234): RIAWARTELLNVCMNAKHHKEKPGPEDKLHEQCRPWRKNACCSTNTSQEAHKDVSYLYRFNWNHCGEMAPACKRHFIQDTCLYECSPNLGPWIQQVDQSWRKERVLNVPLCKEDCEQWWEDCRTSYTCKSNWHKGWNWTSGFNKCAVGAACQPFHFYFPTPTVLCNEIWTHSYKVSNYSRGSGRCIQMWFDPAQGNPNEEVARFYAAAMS

B1: BaCa-1 (Bispecific-Anchored Cytotoxicity-Activator-1; farletuzumab IgG1 with a lexatumumab scFv at the C-terminus of the heavy chain) (bispecific antibody)
heavy: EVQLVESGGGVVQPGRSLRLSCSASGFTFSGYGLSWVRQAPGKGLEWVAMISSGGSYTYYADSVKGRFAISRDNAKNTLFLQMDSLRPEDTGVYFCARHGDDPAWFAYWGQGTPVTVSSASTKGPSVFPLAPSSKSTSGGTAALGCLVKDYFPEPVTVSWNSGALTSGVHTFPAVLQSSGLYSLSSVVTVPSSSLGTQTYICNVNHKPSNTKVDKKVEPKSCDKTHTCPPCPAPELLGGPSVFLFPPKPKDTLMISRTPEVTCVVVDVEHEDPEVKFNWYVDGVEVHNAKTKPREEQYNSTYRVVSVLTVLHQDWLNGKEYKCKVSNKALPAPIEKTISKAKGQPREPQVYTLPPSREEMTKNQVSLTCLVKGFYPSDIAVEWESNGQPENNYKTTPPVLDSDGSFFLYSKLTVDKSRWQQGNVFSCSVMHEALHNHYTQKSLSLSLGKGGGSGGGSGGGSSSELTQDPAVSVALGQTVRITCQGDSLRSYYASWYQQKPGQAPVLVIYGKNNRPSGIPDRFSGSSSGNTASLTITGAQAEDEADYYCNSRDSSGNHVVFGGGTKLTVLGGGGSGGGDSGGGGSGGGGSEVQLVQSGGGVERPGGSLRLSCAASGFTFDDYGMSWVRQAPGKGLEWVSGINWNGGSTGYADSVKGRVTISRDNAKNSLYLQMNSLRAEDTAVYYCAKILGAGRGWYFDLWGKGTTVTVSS
light: DIQLTQSPSSLSASVGDRVTITCSVSSSISSNNLHWYQQKPGKAPKPWIYGTSNLASGVPSRFSGSGSGTDYTFTISSLQPEDIATYYCQQWSSYPYMYTFGQGTKVEIKRTVAAPSVFIFPPSDEQLKSGTASVVCLLNNFYPREAKVQWKVDNALQSGNSQESVTEQDSKDSTYSLSSTLTLSKADYEKHKVYACEVTHQGLSSPVTKSFNRGEC
- cell killing, OVCAR-4 (high FOLR1) over Colo-205 (low FOLR1) cells [1]: ~70 fold
- IC50 of cell viability, Colo-205 cells [2]: 3.07 nM

B2: BaCa antibody labelled with IRDye 800CW (bispecific antibody, human IgG1, kappa)
heavy: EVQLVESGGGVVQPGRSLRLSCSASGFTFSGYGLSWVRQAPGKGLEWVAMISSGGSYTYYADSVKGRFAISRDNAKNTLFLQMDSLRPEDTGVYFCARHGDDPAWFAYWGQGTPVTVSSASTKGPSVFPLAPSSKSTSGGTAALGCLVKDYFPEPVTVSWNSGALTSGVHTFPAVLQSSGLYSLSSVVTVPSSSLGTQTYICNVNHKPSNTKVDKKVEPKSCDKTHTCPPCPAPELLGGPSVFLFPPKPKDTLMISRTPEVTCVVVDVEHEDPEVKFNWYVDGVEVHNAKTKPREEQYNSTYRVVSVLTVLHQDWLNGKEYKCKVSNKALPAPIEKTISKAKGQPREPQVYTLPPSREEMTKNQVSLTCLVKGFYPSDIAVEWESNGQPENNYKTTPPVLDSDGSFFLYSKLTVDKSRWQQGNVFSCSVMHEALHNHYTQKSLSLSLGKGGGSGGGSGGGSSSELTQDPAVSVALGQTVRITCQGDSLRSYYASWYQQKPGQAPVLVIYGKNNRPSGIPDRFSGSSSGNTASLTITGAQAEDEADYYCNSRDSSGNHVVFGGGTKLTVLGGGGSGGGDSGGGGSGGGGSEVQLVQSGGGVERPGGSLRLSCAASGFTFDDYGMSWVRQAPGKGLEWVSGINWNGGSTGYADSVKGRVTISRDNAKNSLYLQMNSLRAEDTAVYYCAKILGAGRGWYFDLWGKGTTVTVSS
light: B1 light
modifications: IRDye 800CW NHS Ester label; sites not stated; IRDye 800CW NHS Ester label (0.04 mg dye per 1 mg of antibodies); sites not stated
notes: Lead BaCa (BaCa-1/HuBaCa), dye-conjugated; also called BaCa-IR800; IR800 labeled BaCa
- binding result [3]: binds

— patent US20200283537A1 (UNIVERSITY OF VIRGINIA PATENT FOUNDATION, published 2020)
